{"source": "FireProtDB (doi:10.1021/bi012113g)", "proteins": {"B1": {"name": "Alkanal monooxygenase alpha chain wild type, P07740 (protein)", "chain": "MKFGNFLLTYQPPELSQTEVMKRLVNLGKASEGCGFDTVWLLEHHFTEFGLLGNPYVAAAHLLGATETLNVGTAAIVLPTAHPVRQAEDVNLLDQMSKGRFRFGICRGLYDKDFRVFGTDMDNSRALMDCWYDLMKEGFNEGYIAADNEHIKFPKIQLNPSAYTQGGAPVYVVAESASTTEWAAERGLPMILSWIINTHEKKAQLDLYNEVATEHGYDVTKIDHCLSYITSVDHDSNRAKDICRNFLGHWYDSYVNATKIFDDSDQTKGYDFNKGQWRDFVLKGHKDTNRRIDYSYEINPVGTPEECIAIIQQDIDATGIDNICCGFEANGSEEEIIASMKLFQSDVMPYLKEKQ"}}, "details": "Vibrio harveyi; pH 7; 25 °C; Urea; CD; NaH2PO4/K2HPO4 50 mM; transition: 4; whole UniProt chain shown", "note": "Where “and” joins values, the source holds several entries; their conditions need not be identical. Equal values may be shown once.", "data": [{"protein": "B1", "values": [{"measurement": "unfolding free energy", "result": "4.5 kcal/mol and 2.8 kcal/mol"}]}]}
